Measurements as given in PMC13458692.
pKd: −log10 of the molar value.

Biological target: Biotinylated MR1-β2m-5-OP-RU (UniProt Q95460)
Experiment: SPR

Sequence of UniProt Q95460 (Q95460 23-302, chain 1 of 2): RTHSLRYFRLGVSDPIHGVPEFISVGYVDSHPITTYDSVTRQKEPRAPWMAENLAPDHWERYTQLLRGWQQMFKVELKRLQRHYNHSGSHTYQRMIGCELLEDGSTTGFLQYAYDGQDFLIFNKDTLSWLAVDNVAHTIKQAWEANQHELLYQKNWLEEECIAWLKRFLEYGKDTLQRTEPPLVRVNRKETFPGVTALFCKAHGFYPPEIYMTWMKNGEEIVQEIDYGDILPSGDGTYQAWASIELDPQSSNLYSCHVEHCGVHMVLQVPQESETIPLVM
Sequence of UniProt Q95460 (P61769 21-119, chain 2 of 2, further chain): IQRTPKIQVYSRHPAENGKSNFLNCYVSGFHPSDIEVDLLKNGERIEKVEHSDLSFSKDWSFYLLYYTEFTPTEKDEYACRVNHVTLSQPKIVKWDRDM

Work on “A-F7 (TRAV1-2/TRBV6-1) adult MAIT TCR, soluble” yielded a pKd of 5.72.
